Nine molecules from PMC10397247 can be followed below.

Where two headings read alike, the source gives them in different places.

In one assay the target is T1, 4H3343-AA.
T1 chain: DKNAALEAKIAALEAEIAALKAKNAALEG
The assay can be described thus: two-hybrid library CCmax.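 Further: natural log of median RNA to DNA barcode read ratio; higher means stronger binding.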

A further assay addresses T2, 4H317-AA.
T2 chain: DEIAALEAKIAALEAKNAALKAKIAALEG
The assay can be described thus: two-hybrid library CCmax.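 Further: natural log of median RNA to DNA barcode read ratio; higher means stronger binding.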

A further assay concerns the target T3, 4H605-AA.
T3 chain: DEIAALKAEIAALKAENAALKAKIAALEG
The assay can be described thus: two-hybrid library CCmax.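 Further: natural log of median RNA to DNA barcode read ratio; higher means stronger binding.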 The settings on record: mean of both orientations.

The target of another assay is T4, 4H678-AA.
T4 chain: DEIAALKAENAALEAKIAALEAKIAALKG
The assay can be described thus: two-hybrid library CCmax.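 Further: natural log of median RNA to DNA barcode read ratio; higher means stronger binding.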 Conditions: mean of both orientations.

The target of the next assay is T5, 4H881-AA.
T5 chain: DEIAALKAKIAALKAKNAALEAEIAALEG
The assay can be described thus: two-hybrid library CCmax. The settings on record: mean of both orientations.

The next assay addresses T6, 4H3921-AA.
T6 chain: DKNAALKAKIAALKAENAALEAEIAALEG
As to the kind of experiment: two-hybrid library CCmax. The settings on record: mean of both orientations.

The target in another assay is T7, 4H566-AA.
T7 chain: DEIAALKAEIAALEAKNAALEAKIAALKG
As to the kind of experiment: two-hybrid library CCmax. Conditions: mean of both orientations.

A further assay deals with T8, 4H794-AA.
T8 chain: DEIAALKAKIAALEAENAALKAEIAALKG
The assay can be described thus: two-hybrid library CCmax.

The target in a further assay is T9, 4H3655-AA.
T9 chain: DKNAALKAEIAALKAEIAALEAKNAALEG
The assay can be described thus: two-hybrid library CCmax. The settings on record: mean of both orientations.

Another assay concerns the target T10, 4H3606-AA.
T10 chain: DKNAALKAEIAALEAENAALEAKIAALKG
The assay can be described thus: two-hybrid library CCmax. Conditions: mean of both orientations.

Another assay concerns the target T11, 4H3427-AA.
T11 chain: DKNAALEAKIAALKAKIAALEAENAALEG
The assay can be described thus: two-hybrid library CCmax. The settings on record: mean of both orientations.

The target of a further assay is T12, 4H342-AA.
T12 chain: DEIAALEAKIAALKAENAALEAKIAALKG
The assay can be described thus: two-hybrid library CCmax. Conditions: mean of both orientations.

The target of another assay is T13, 4H906-AA.
T13 chain: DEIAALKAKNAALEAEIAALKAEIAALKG
The assay can be described thus: two-hybrid library CCmax. The settings on record: mean of both orientations.

In a further assay the target is T14, 4H48-AA.
T14 chain: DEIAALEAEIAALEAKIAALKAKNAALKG
The assay can be described thus: two-hybrid library CCmax. Conditions: mean of both orientations.

Another assay deals with T15, 4H3844-AA.
T15 chain: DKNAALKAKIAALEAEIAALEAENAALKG
As to the kind of experiment: two-hybrid library CCmax. Conditions: mean of both orientations.

The target in the next assay is T16, 4H3627-AA.
T16 chain: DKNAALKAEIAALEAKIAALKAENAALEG
The assay can be described thus: two-hybrid library CCmax. Conditions: mean of both orientations.

The target in the next assay is T17, 4H429-AA.
T17 chain: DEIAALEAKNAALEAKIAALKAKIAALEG
The assay can be described thus: two-hybrid library CCmax. The settings on record: mean of both orientations.

The target of a further assay is T18, 4H335-AA.
T18 chain: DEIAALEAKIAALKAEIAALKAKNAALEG
The assay can be described thus: two-hybrid library CCmax.

Another assay has as its target T19, 4H993-AA.
T19 chain: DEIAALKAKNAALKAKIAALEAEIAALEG
As to the kind of experiment: two-hybrid library CCmax. Conditions: mean of both orientations.

The next assay has as its target T20, 4H717-AA.
T20 chain: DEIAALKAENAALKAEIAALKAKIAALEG
The assay can be described thus: two-hybrid library CCmax. Conditions: mean of both orientations.

In the next assay the target is T21, 4H454-AA.
T21 chain: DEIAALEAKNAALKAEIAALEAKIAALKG
The assay can be described thus: two-hybrid library CCmax. The settings on record: mean of both orientations.

A further assay addresses T22, 4H780-AA.
T22 chain: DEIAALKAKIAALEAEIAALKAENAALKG
As to the kind of experiment: two-hybrid library CCmax. The settings on record: mean of both orientations.

The next assay addresses T23, 4H850-bN.
T23 chain: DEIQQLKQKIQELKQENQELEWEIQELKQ
As to the kind of experiment: two-hybrid library CCNG1.

The target in another assay is T24, 4H906-bN.
T24 chain: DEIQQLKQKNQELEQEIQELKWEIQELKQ
As to the kind of experiment: two-hybrid library CCNG1.

A further assay has as its target T25, 4H63-AA.
T25 chain: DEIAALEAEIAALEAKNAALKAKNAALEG
The assay can be described thus: two-hybrid library CCmax. Conditions: mean of both orientations.

The target of a further assay is T26, 4H483-AA.
T26 chain: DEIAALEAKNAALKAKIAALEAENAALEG
As to the kind of experiment: two-hybrid library CCmax.

The next assay has as its target T27, 4H656-AA.
T27 chain: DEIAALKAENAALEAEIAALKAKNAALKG
As to the kind of experiment: two-hybrid library CCmax. The settings on record: mean of both orientations.

A further assay addresses T28, 4H497-AA.
T28 chain: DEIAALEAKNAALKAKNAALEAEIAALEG
As to the kind of experiment: two-hybrid library CCmax. The settings on record: mean of both orientations.

The target of another assay is T29, 4H3939-AA.
T29 chain: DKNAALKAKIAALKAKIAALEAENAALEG
As to the kind of experiment: two-hybrid library CCmax. Conditions: mean of both orientations.

In the next assay the target is T30, 4H675-AA.
T30 chain: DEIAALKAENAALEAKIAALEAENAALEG
As to the kind of experiment: two-hybrid library CCmax. The settings on record: mean of both orientations.

Another assay addresses T31, 4H428-AA.
T31 chain: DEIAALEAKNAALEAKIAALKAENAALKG
The assay can be described thus: two-hybrid library CCmax. The settings on record: mean of both orientations.

The next assay deals with T32, 4H971-AA.
T32 chain: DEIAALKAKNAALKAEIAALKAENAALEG
The assay can be described thus: two-hybrid library CCmax. Conditions: mean of both orientations.

The target in a further assay is T33, 4H3920-AA.
T33 chain: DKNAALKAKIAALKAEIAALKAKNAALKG
As to the kind of experiment: two-hybrid library CCmax.

The target of a further assay is T34, 4H478-AA.
T34 chain: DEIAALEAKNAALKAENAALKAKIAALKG
As to the kind of experiment: two-hybrid library CCmax. Conditions: mean of both orientations.

For a further assay, the target named is T35, 4H3112-AA.
T35 chain: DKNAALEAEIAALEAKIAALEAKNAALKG
As to the kind of experiment: two-hybrid library CCmax. Conditions: mean of both orientations.

Another assay has as its target T36, 4H2949-AA.
T36 chain: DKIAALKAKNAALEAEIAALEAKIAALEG
As to the kind of experiment: two-hybrid library CCmax.

The target of another assay is T37, APC9291-AA.
T37 chain: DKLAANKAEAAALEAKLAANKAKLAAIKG
The assay can be described thus: two-hybrid library CCmax.

The next assay concerns the target T38, APC9806-AA.
T38 chain: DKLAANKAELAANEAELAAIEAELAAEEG
As to the kind of experiment: two-hybrid library CCmax. Conditions: mean of both orientations.

The next assay concerns the target T39, 4H432-AA.
T39 chain: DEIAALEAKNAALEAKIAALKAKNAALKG
As to the kind of experiment: two-hybrid library CCmax. Conditions: mean of both orientations.

In a further assay the target is T40, 4H3974-AA.
T40 chain: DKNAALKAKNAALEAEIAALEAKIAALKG
As to the kind of experiment: two-hybrid library CCmax.

A further assay deals with T41, 4H446-AA.
T41 chain: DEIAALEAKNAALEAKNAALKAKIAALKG
The assay can be described thus: two-hybrid library CCmax. Conditions: mean of both orientations.

On to DEIAALEAKIAALEAKNAALKAKIAALEG [4H317-AA], for which the interaction score in the assay with 4H3343-AA (mean of both orientations) is -1.56; in the assay with 4H317-AA, 1.28; in the assay with 4H605-AA, -0.441; with 4H678-AA, 0.755; with 4H881-AA, 1.38; with 4H3921-AA, 1.81. Further, the interaction score with 4H566-AA is 1.74; with 4H794-AA (mean of both orientations), 0.104; with 4H3655-AA, -0.949; with 4H3606-AA, 2.23; with 4H3427-AA it was 1.23; with 4H342-AA, 2.15. Besides, the interaction score in the assay with 4H906-AA was 0.51; with 4H48-AA, 0.228; in the assay with 4H3844-AA, -0.686; in the assay with 4H3627-AA it was -0.771; in the assay with 4H429-AA, -0.459; with 4H335-AA (mean of both orientations) it was -0.361. Also, the interaction score in the assay with 4H993-AA was -1.11; with 4H717-AA it was -1.63; with 4H454-AA, -1.04; in the assay with 4H780-AA, -1.52.

As to DEIAALEAKIAALKAEIAALKAKNAALEG [4H335-AA], the interaction score with 4H605-AA was -1.51; with 4H678-AA, -1.15; with 4H881-AA, -1.54; in the assay with 4H3921-AA it was -0.804; with 4H566-AA, -1.09; in the assay with 4H794-AA (mean of both orientations) it was -1.3. The interaction score with 4H3655-AA was 0.662; with 4H3427-AA, -0.982; with 4H342-AA, -0.154; in the assay with 4H906-AA it was -1.22; with 4H3844-AA, 1.22; with 4H3627-AA it was 1.23. Also, the interaction score is -0.695 with 4H429-AA; 1.81 with 4H335-AA; -0.48 in the assay with 4H993-AA; -1.46 with 4H717-AA; 0.512 with 4H454-AA; -0.326 with 4H780-AA.

Consider DEIQQLKQKIQELKQENQELEWEIQELKQ [4H850-bN], for which the interaction score in the assay with 4H850-bN is 0.186; with 4H906-bN, -0.386.

Regarding DEIAALEAKNAALKAKIAALEAENAALEG [4H483-AA], the values for the interaction score in the assay with 4H63-AA and in the assay with 4H483-AA were -1.11 and -2.02, respectively.

As to DKNAALKAKIAALKAEIAALKAKNAALKG [4H3920-AA], the interaction score with 4H656-AA was -1.01; with 4H497-AA, -1.9; with 4H3939-AA, -0.87; with 4H675-AA, -1.22; with 4H428-AA, -0.945; in the assay with 4H971-AA, -1.64. Moreover, the interaction score with 4H3920-AA was -1.57; with 4H478-AA, -1.71.

Turning to DKNAALEAKIAALEAEIAALKAKNAALEG [4H3343-AA], the interaction score was 1.37 in the assay with 4H3343-AA; -1.38 in the assay with 4H605-AA; -1.08 with 4H678-AA; -1.72 in the assay with 4H881-AA; -1.44 in the assay with 4H3921-AA; -1.55 with 4H566-AA. Besides, the interaction score was -1.33 with 4H794-AA (mean of both orientations); -1.03 with 4H3655-AA; -1.94 with 4H3606-AA; -0.88 in the assay with 4H3427-AA; -1.13 in the assay with 4H342-AA; -1.17 with 4H906-AA. Besides, the interaction score with 4H48-AA was -0.868; with 4H3844-AA, 0.2; in the assay with 4H3627-AA, -0.363; in the assay with 4H429-AA, -1.22; with 4H335-AA (mean of both orientations) it was 0.806; with 4H993-AA, -1.4. The interaction score with 4H717-AA is -1.27; in the assay with 4H454-AA, -0.866; in the assay with 4H780-AA, -1.16.

Take DKIAALKAKNAALEAEIAALEAKIAALEG [4H2949-AA]: the interaction score with 4H3343-AA (mean of both orientations) is -1.48; with 4H317-AA (mean of both orientations) it was 1.47; with 4H605-AA it was -0.239; in the assay with 4H678-AA, 1.69; with 4H881-AA it was 1.71; with 4H3112-AA, -0.654. Besides, the interaction score with 4H3921-AA was 0.152; in the assay with 4H566-AA, -0.649; with 4H794-AA, -1; in the assay with 4H3655-AA, -1.3; with 4H2949-AA it was 1.3; with 4H3606-AA, -0.156. Further, the interaction score is -0.95 in the assay with 4H3427-AA; 0.399 in the assay with 4H342-AA; -1.01 in the assay with 4H906-AA; -0.564 in the assay with 4H48-AA; -1.79 with 4H3844-AA; -1.38 with 4H3627-AA. Besides, the interaction score is 1.91 with 4H429-AA; -0.276 in the assay with 4H335-AA (mean of both orientations); 1.65 in the assay with 4H993-AA; -0.385 with 4H717-AA; 1.98 in the assay with 4H454-AA; -1.49 in the assay with 4H780-AA.

On to DKLAANKAEAAALEAKLAANKAKLAAIKG [APC9291-AA], for which the interaction score with APC9291-AA and with APC9806-AA was -1.78 in each case.

For DKNAALKAKNAALEAEIAALEAKIAALKG [4H3974-AA], the interaction score with 4H432-AA is -0.198; with 4H3974-AA, -0.00837; with 4H446-AA it was -0.724; with 4H63-AA it was -0.932.
